Test results: article PMC9279676, “ERK2 MAP kinase regulates SUFU binding by multisite phosphorylation of GLI1” (Life Science Alliance, 2022)
Where “and” joins values, the source holds several entries; their conditions need not be identical. Identical values can stand only once.

T1: full-length human SUFU protein, 35S-radiolabeled (human, UniProt Q9UMX1-1 1-484, [35S]-methionine label)
T1 construct: human SUFU, full length, residues 1-484, from plasmid pGEM4Z-SUFU; also called 35S-SUFU; radiolabeled SUFU; source: in vitro transcription and translation (SP6, Promega), partially purified by ammonium sulfate precipitation
T1 sequence (looked up): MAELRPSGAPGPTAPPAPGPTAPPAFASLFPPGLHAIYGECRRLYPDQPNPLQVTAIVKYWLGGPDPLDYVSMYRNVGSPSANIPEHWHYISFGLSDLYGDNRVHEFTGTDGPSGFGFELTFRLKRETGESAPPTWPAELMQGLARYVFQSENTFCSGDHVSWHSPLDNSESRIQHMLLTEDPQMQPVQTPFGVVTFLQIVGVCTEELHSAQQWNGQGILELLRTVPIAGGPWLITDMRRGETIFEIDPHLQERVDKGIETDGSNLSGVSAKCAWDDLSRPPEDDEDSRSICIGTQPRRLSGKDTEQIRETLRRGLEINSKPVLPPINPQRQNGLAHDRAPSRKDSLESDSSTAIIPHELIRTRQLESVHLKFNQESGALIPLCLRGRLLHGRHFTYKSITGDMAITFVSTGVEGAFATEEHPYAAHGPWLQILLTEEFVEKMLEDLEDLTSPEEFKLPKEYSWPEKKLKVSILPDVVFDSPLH

T2: GST-SUFU (fusion of GST to full-length human SUFU) (human, UniProt Q9UMX1-1 1-484)
T2 construct: human SUFU, full length (residues 1-484), BamHI-SUFU-SalI cassette in pGEX-LB; pGEX-LB carries a Gly-Gly-Gly-Gly-Gly-Ser-Gly stretch between GST and the fused protein; also called full-length GST-SUFU; source: Escherichia coli, purified (glutathione-Sepharose); not shown: GST, N-terminal, kept
T2 sequence (looked up): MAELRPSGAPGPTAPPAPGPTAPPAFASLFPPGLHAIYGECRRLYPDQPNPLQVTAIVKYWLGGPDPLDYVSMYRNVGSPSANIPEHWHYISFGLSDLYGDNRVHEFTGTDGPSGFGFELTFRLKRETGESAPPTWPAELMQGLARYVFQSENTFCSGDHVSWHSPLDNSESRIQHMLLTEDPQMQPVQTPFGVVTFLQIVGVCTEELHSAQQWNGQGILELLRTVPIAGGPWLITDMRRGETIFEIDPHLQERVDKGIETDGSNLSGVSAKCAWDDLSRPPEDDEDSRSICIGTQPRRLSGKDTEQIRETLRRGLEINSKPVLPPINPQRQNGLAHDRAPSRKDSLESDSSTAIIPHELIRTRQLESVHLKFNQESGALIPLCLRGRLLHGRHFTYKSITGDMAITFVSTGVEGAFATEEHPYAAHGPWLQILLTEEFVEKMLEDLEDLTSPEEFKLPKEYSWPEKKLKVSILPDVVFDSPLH


These binders were tested against T1, full-length human SUFU protein, … (assay: pull-down; purified GST-GLI1_(68-232) variants (mock treated or ERK2 phosphorylated), 0 or 1.25-80 nM, on glutathione-Sepharose beads; ∼1 pmol 35S-SUFU in 200 μl; 15 min at 30°C, then 1 h at room temperature; Binding Buffer (20 mM Tris-HCl pH 7.5, 125 mM KOAc, 0.5 mM EDTA, 5 mM DTT, 0.1% Tween20, 12.5% glycerol) + 1 mg/ml BSA; bound SUFU quantified by SDS-PAGE and Phosphorimager; Kd from binding isotherms). Details: one partner purified.

Kd	Binder
~4 nM and 4 nM and 3 nM	GST-GLI1_(68-232), wild type, unphosphorylated (mock treated) (domain or fragment, human, UniProt P08151-1 68-232, looked up, vector pGEX-LB (Gly-Gly-Gly-Gly-Gly-Ser-Gly stretch between GST and the fused part); the plasmid is from Whisenant et al, 2010; also called wild-type GLI1; WT; source: bacteria, purified (glutathione-Sepharose); untreated or mock treated (no ERK2)) FSSPRSAVKLTKKRALSISPLSDASLDLQTVIRTSPSSLVAFINSRCTSPGGSYGHLSIGTMSPSLGFPAQMNHQKGPSPSFGVQPCGPHDSARGGMIPHPQSRGPFPTCQLKSELDMLVGKCREEPLEGDMSSPNSTGIQDPLLGMLDGREDLEREEKREPESV
43 ± 8 nM	GST-GLI1^S102,S116, phosphorylated by ERK2 (domain or fragment, human, UniProt P08151-1 68-232, looked up, phosphorylated by ERK2; intact SP sites S102, S116, only the SP sites S102 and S116 intact; also called ERK2-treated GLI1^S102,S116; source: bacteria, purified (glutathione-Sepharose); then phosphorylated with purified active ERK2) FSAPRSAVKLTKKRALSIAPLSDASLDLQTVIRTSPSSLVAFINSRCTSPGGSYGHLSIGTMAPSLGFPAQMNHQKGPAPSFGVQPCGPHDSARGGMIPHPQSRGPFPTCQLKSELDMLVGKCREEPLEGDMSAPNSTGIQDPLLGMLDGREDLEREEKREPESV
~3 nM	GST-GLI1^S102 (GST-GLI1_(68-232), only S102 intact), mock treated (domain or fragment, human, UniProt P08151-1 68-232, looked up, only the SP site S102 intact; also called S102 one site only; source: bacteria, purified (glutathione-Sepharose); mock treated (no ERK2)) FSAPRSAVKLTKKRALSIAPLSDASLDLQTVIRTSPSSLVAFINSRCTAPGGSYGHLSIGTMAPSLGFPAQMNHQKGPAPSFGVQPCGPHDSARGGMIPHPQSRGPFPTCQLKSELDMLVGKCREEPLEGDMSAPNSTGIQDPLLGMLDGREDLEREEKREPESV

These binders were tested against T2, GST-SUFU (fusion of GST to full-length …) (assay: pull-down; purified GST-SUFU, 1.25-80 nM, captured on glutathione-Sepharose beads; ∼1 pmol 35S-GLI1 (1-232 or full length) in 200 μl; 15 min at 30°C, then 1 h at room temperature; Binding Buffer + 1 mg/ml BSA; bound GLI1 quantified by SDS-PAGE and Phosphorimager; Kd from binding isotherms). Details: one partner purified.

Kd	fold reduction in affinity against wild-type GLI1_(1-232)	Binder
8 nM and 14 nM	–	GLI1_(1-232), wild type, 35S-radiolabeled (domain or fragment, human, UniProt P08151-1 1-232, looked up, [35S]-methionine label, source: in vitro transcription/translation (T7), partially purified by ammonium sulfate precipitation) MFNSMTPPPISSYGEPCCLRPLPSQGAPSVGTEGLSGPPFCHQANLMSGPHSYGPARETNSCTEGPLFSSPRSAVKLTKKRALSISPLSDASLDLQTVIRTSPSSLVAFINSRCTSPGGSYGHLSIGTMSPSLGFPAQMNHQKGPSPSFGVQPCGPHDSARGGMIPHPQSRGPFPTCQLKSELDMLVGKCREEPLEGDMSSPNSTGIQDPLLGMLDGREDLEREEKREPESV
–	~8 fold	GLI1_(1-232) S102E, 35S-radiolabeled (domain or fragment, human, UniProt P08151-1 1-232, looked up, [35S]-methionine label, source: in vitro transcription/translation (T7), partially purified by ammonium sulfate precipitation) MFNSMTPPPISSYGEPCCLRPLPSQGAPSVGTEGLSGPPFCHQANLMSGPHSYGPARETNSCTEGPLFSSPRSAVKLTKKRALSISPLSDASLDLQTVIRTEPSSLVAFINSRCTSPGGSYGHLSIGTMSPSLGFPAQMNHQKGPSPSFGVQPCGPHDSARGGMIPHPQSRGPFPTCQLKSELDMLVGKCREEPLEGDMSSPNSTGIQDPLLGMLDGREDLEREEKREPESV
–	12 fold	GLI1_(1-232) S102E S116E, 35S-radiolabeled (domain or fragment, human, UniProt P08151-1 1-232, looked up, [35S]-methionine label, also called S102E S116E double mutant; source: in vitro transcription/translation (T7), partially purified by ammonium sulfate precipitation) MFNSMTPPPISSYGEPCCLRPLPSQGAPSVGTEGLSGPPFCHQANLMSGPHSYGPARETNSCTEGPLFSSPRSAVKLTKKRALSISPLSDASLDLQTVIRTEPSSLVAFINSRCTEPGGSYGHLSIGTMSPSLGFPAQMNHQKGPSPSFGVQPCGPHDSARGGMIPHPQSRGPFPTCQLKSELDMLVGKCREEPLEGDMSSPNSTGIQDPLLGMLDGREDLEREEKREPESV
3800 nM	–	GLI1_(1-232) L124P (tumor-derived), 35S-radiolabeled (domain or fragment, human, UniProt P08151-1 1-232, looked up, [35S]-methionine label, source: in vitro transcription/translation, partially purified by ammonium sulfate precipitation) MFNSMTPPPISSYGEPCCLRPLPSQGAPSVGTEGLSGPPFCHQANLMSGPHSYGPARETNSCTEGPLFSSPRSAVKLTKKRALSISPLSDASLDLQTVIRTSPSSLVAFINSRCTSPGGSYGHPSIGTMSPSLGFPAQMNHQKGPSPSFGVQPCGPHDSARGGMIPHPQSRGPFPTCQLKSELDMLVGKCREEPLEGDMSSPNSTGIQDPLLGMLDGREDLEREEKREPESV
–	65 fold	GLI1_(1-232) S102E S116E S130E, 35S-radiolabeled (domain or fragment, human, UniProt P08151-1 1-232, looked up, [35S]-methionine label, also called S102E S116E S130E triple mutant; EEE; source: in vitro transcription/translation (T7), partially purified by ammonium sulfate precipitation) MFNSMTPPPISSYGEPCCLRPLPSQGAPSVGTEGLSGPPFCHQANLMSGPHSYGPARETNSCTEGPLFSSPRSAVKLTKKRALSISPLSDASLDLQTVIRTEPSSLVAFINSRCTEPGGSYGHLSIGTMEPSLGFPAQMNHQKGPSPSFGVQPCGPHDSARGGMIPHPQSRGPFPTCQLKSELDMLVGKCREEPLEGDMSSPNSTGIQDPLLGMLDGREDLEREEKREPESV
–	38 fold	GLI1_(1-232) S102E S130E, 35S-radiolabeled (domain or fragment, human, UniProt P08151-1 1-232, looked up, [35S]-methionine label, also called S102E S130E double mutant; source: in vitro transcription/translation (T7), partially purified by ammonium sulfate precipitation) MFNSMTPPPISSYGEPCCLRPLPSQGAPSVGTEGLSGPPFCHQANLMSGPHSYGPARETNSCTEGPLFSSPRSAVKLTKKRALSISPLSDASLDLQTVIRTEPSSLVAFINSRCTSPGGSYGHLSIGTMEPSLGFPAQMNHQKGPSPSFGVQPCGPHDSARGGMIPHPQSRGPFPTCQLKSELDMLVGKCREEPLEGDMSSPNSTGIQDPLLGMLDGREDLEREEKREPESV
181 ± 30 nM	–	GLI1_(1-232) S105F (tumor-derived), 35S-radiolabeled (domain or fragment, human, UniProt P08151-1 1-232, looked up, [35S]-methionine label, source: in vitro transcription/translation, partially purified by ammonium sulfate precipitation) MFNSMTPPPISSYGEPCCLRPLPSQGAPSVGTEGLSGPPFCHQANLMSGPHSYGPARETNSCTEGPLFSSPRSAVKLTKKRALSISPLSDASLDLQTVIRTSPSFLVAFINSRCTSPGGSYGHLSIGTMSPSLGFPAQMNHQKGPSPSFGVQPCGPHDSARGGMIPHPQSRGPFPTCQLKSELDMLVGKCREEPLEGDMSSPNSTGIQDPLLGMLDGREDLEREEKREPESV
